Test results taken from patent US20240124585A1 (SUTRO BIOPHARMA, published 2024).
Read-outs that look alike come from different tables or passages of the source.

T1: cynomolgus CD3 epsilon (cynomolgus monkey, UniProt Q95LI5 22-117, limits assumed)
T1 construct: Recombinant protein; also called cyno CD3E
T1 sequence: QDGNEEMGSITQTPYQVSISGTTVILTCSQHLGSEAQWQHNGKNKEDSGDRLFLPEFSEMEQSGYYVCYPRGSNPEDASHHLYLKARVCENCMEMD

B1: 2037-B10-Lc1 (antibody)
heavy: not shown
light: DIQMTQSPSSLSASVGDRVTITCGSSTGAVTSGYYPNWYQQKPGKAPKLLIGGTKFLAPGVPSRFSGSGSGTDFTLTISSLQPEDFATYYCALWYSNRWVFGGGTKVEIKRTVAAPSVFIFPPSDEQLKSGTASVVCLLNNFYPREAKVQWKVDNALQSGNSQESVTEQDSKDSTYSLSSTLTLSKADYEKHKVYACEVTHQGLSSPVTKSFNRGEC
notes: human IgG1, kappa; also called Kappa Lc1
B2: 2037-B10-Lc4 (antibody)
heavy: not shown
light: DIQMTQSPSSLSASVGDRVTITCGSSTGAVTSGYYPNWYQQKPGKAPKLLIGGTKFLAPGVPSRFSGSLSGGKATLTISSLQPEDFATYYCALWYSNRWVFGGGTKVEIKRTVAAPSVFIFPPSDEQLKSGTASVVCLLNNFYPREAKVQWKVDNALQSGNSQESVTEQDSKDSTYSLSSTLTLSKADYEKHKVYACEVTHQGLSSPVTKSFNRGEC
notes: human IgG1, kappa; also called Kappa Lc4
B3: SRP 2037-B10 Y61D/LC6 (antibody, human IgG1, kappa, V domains shown)
VH: EVQLVESGGGLVKPGGSLRLSCAASGFTFNKYAMNWVRQAPGKGLEWVARIRTKYNNYATDYADSVKDRFTISRDDSKNTAYLQMNSLKTEDTAVYYCVRHGNFGNSYISYWAYWGQGTPVTVSS
VL: DIQMTQSPSSLSASVGDRVTITCGSSTGAVTSGYYPNWLQQKPGQAPRGLIGGTKFLAPGVPSRFSGSLSGGKATLTISSLQPEDFATYYCALWYSNRWVFGGGTKVEIKR
notes: human IgG1, kappa
B4: 2037-B10-Lc3 (antibody)
heavy: not shown
light: DIQMTQSPSSLSASVGDRVTITCGSSTGAVTSGYYPNWLQQKPGQAPRGLIGGTKFLAPGVPSRFSGSGSGTDFTLTISSLQPEDFATYYCALWYSNRWVFGGGTKVEIKRTVAAPSVFIFPPSDEQLKSGTASVVCLLNNFYPREAKVQWKVDNALQSGNSQESVTEQDSKDSTYSLSSTLTLSKADYEKHKVYACEVTHQGLSSPVTKSFNRGEC
notes: human IgG1, kappa; also called Kappa Lc3
B5: 2037-B10-Lc8 (antibody)
heavy: not shown
light: DTQVTQSPSLSASVGDRVTITCGSSTGAVTSGYYPNWLQQKPGQAPRGLIGGTKFLAPGVPSRFSGSLSGGKATLTISSLQPEDFATYYCALWYSNRWVFGGGTKVEIKRTVAAPSVFIFPPSDEQLKSGTASVVCLLNNFYPREAKVQWKVDNALQSGNSQESVTEQDSKDSTYSLSSTLTLSKADYEKHKVYACEVTHQGLSSPVTKSFNRGEC
notes: human IgG1, kappa; also called Kappa Lc8
B6: 2037-B10-Lc2 (antibody)
heavy: not shown
light: DTQVTQSPSLSASVGDRVTITCGSSTGAVTSGYYPNWYQQKPGKAPKLLIGGTKFLAPGVPSRFSGSGSGTDFTLTISSLQPEDFATYYCALWYSNRWVFGGGTKVEIKRTVAAPSVFIFPPSDEQLKSGTASVVCLLNNFYPREAKVQWKVDNALQSGNSQESVTEQDSKDSTYSLSSTLTLSKADYEKHKVYACEVTHQGLSSPVTKSFNRGEC
notes: human IgG1, kappa; also called Kappa Lc2
B7: 2037-B10-Lc7 (antibody)
heavy: not shown
light: DTQVTQSPSLSASVGDRVTITCGSSTGAVTSGYYPNWYQQKPGKAPKLLIGGTKFLAPGVPSRFSGSLSGGKATLTISSLQPEDFATYYCALWYSNRWVFGGGTKVEIKRTVAAPSVFIFPPSDEQLKSGTASVVCLLNNFYPREAKVQWKVDNALQSGNSQESVTEQDSKDSTYSLSSTLTLSKADYEKHKVYACEVTHQGLSSPVTKSFNRGEC
notes: human IgG1, kappa; also called Kappa Lc7
B8: 2037-B10-Lc9 (antibody, V domains shown)
VH: not shown
VL: DTQVTQSPSLSASVGDRVTITCGSSTGAVTSGYYPNWLQQKPGQAPRGLIGGTKFLAPGVPSRFSGSLLGGKAALTISSLQPEDFATYYCALWYSNRWVFGGGTKVEIKR
notes: human IgG1, kappa; also called Kappa Lc9
B9: 2037-B10_Hc-F104D (antibody, human IgG1, lambda, V domains shown)
VH: EVQLVESGGGLVKPGGSLRLSCAASGFTFNKYAMNWVRQAPGKGLEWVARIRTKYNNYATYYADSVKDRFTISRDDSKNTAYLQMNSLKTEDTAVYYCVRHGNDGNSYISYWAYWGQGTPVTVSS
VL: QTVVTQEPSLTVSPGGTVTLTCGSSTGAVTSGYYPNWLQQKPGQAPRGLIGGTKFLAPGTPARFSGSLLGGKAALTLSGVQPEDEAEYYCALWYSNRWVFGGGTQLTVTG
notes: human IgG1, lambda; also called SRP 2037 F104D; 2037-B10_VH-F104D
B10: 2037-B10_Hc-Y61D (antibody, human IgG1, lambda, V domains shown)
VH: EVQLVESGGGLVKPGGSLRLSCAASGFTFNKYAMNWVRQAPGKGLEWVARIRTKYNNYATDYADSVKDRFTISRDDSKNTAYLQMNSLKTEDTAVYYCVRHGNFGNSYISYWAYWGQGTPVTVSS
VL: QTVVTQEPSLTVSPGGTVTLTCGSSTGAVTSGYYPNWLQQKPGQAPRGLIGGTKFLAPGTPARFSGSLLGGKAALTLSGVQPEDEAEYYCALWYSNRWVFGGGTQLTVTG
notes: human IgG1, lambda; also called SRP 2037 Y61D; 2037-B10_VH-Y61D
B11: 2037-B10_Hc-Y55D (antibody, human IgG1, lambda, V domains shown)
VH: EVQLVESGGGLVKPGGSLRLSCAASGFTFNKYAMNWVRQAPGKGLEWVARIRTKDNNYATYYADSVKDRFTISRDDSKNTAYLQMNSLKTEDTAVYYCVRHGNFGNSYISYWAYWGQGTPVTVSS
VL: QTVVTQEPSLTVSPGGTVTLTCGSSTGAVTSGYYPNWLQQKPGQAPRGLIGGTKFLAPGTPARFSGSLLGGKAALTLSGVQPEDEAEYYCALWYSNRWVFGGGTQLTVTG
notes: human IgG1, lambda; also called SRP 2037 Y55D; 2037-B10_VH-Y55D
B12: 2037-B10_Hc-S107D (antibody, human IgG1, lambda, V domains shown)
VH: EVQLVESGGGLVKPGGSLRLSCAASGFTFNKYAMNWVRQAPGKGLEWVARIRTKYNNYATYYADSVKDRFTISRDDSKNTAYLQMNSLKTEDTAVYYCVRHGNFGNDYISYWAYWGQGTPVTVSS
VL: QTVVTQEPSLTVSPGGTVTLTCGSSTGAVTSGYYPNWLQQKPGQAPRGLIGGTKFLAPGTPARFSGSLLGGKAALTLSGVQPEDEAEYYCALWYSNRWVFGGGTQLTVTG
notes: human IgG1, lambda; also called SRP 2037 S107D; 2037-B10_VH-S107D

Assays:
[1] = target: T2, human CD3 on T-cell lines (CD3-expressing Jurkat cells; HUT78 cells) (human, UniProt P07766 23-207); assay: flow cytometry, HUT78 cells
T2 construct: On cells it stands in the CD3/TCR complex
T2 sequence (P07766 23-207 limits assumed): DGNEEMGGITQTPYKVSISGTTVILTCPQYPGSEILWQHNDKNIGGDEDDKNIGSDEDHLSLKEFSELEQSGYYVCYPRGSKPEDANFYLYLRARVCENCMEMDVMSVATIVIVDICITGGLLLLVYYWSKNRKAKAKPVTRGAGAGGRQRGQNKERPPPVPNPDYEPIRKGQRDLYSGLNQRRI

[2] = target: T3, human CD3 epsilon (Acro Cat #CDE-H5223) (human, UniProt P07766 23-126); assay: SPR (Biacore), antibody captured, human CD3 epsilon analyte
T3 construct: Bought recombinant protein; also called rhCD3E
T3 sequence (P07766 23-126 limits assumed): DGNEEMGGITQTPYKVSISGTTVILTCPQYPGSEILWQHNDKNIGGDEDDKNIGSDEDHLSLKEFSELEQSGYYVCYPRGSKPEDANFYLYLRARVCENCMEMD
Procedure: (§1) Anti-Fab or anti-Fc polyclonal antibodies were immobilized onto a CM5 chip (GE Life Sciences) using amine coupling chemistry (from Amine Coupling Kit, GE Life Sciences). The immobilization steps were carried out at a flow rate of 25 μl/min in 1×HBS-EP+ buffer (GE Life Sciences; 10× Stock diluted before use). The sensor surfaces were activated for 7 min with a mixture of NHS (0.05 M) and EDC (0.2 M). The Anti-Fab or Anti-Fc antibodies were injected over all 4 flow cells at a concentration of 25 μg/mL in 10 mM sodium acetate, pH 4.5, for 7 min. Ethanolamine (1 M, pH 8.5) was injected for 7 min to block any remaining activated groups.
(§2) Off-rate and kinetic binding experiments were performed at 25° C. using 1×HBS-EP+ buffer. Test and control antibodies were injected over the anti-Fab or anti-Fc surface at concentrations of 5-10 μg/mL for 12 seconds at a flow rate of 10 μL/min on flow cells 2, 3 and 4, followed by a buffer wash for 30 seconds at the same flow rate. […] After capturing ligand (antibody) on the anti-Fc or anti-Fab surface, the analyte (human CD3 epsilon, Acro Cat #CDE-H5223) was bound for 180 seconds, followed by a 600 second dissociation phase at a flow rate of 50 μL/min. Between each ligand capture and analyte binding cycle, regeneration was carried out using two injections of 10 mM Glycine pH 2.0 for 30 seconds at 30 μL/min, followed by a 30 second buffer wash step.
(§3) The data was fit with the Biacore T200 Evaluation software, using a 1-1 Langmuir binding model. KD (affinity, nM) was determined as a ratio of the kinetic rate constants calculated from the fits of the association and dissociation phases.

cynomolgus CD3 epsilon [3] = target: T1, cynomolgus CD3 epsilon; assay: SPR (Biacore), antibody captured, cynomolgus CD3 epsilon analyte
[4] = target: T2, human CD3 on T-cell lines …; assay: flow cytometry, HUT78 cells; remark: listed apart in the source
[5] = target: T3, human CD3 epsilon (Acro Cat #CDE-H5223); assay: SPR (Biacore), antibody captured, human CD3 epsilon analyte; remark: listed apart in the source
Procedure: as §1, §2, §3

cynomolgus CD3 epsilon [6] = target: T1, cynomolgus CD3 epsilon; assay: SPR (Biacore), antibody captured, cynomolgus CD3 epsilon analyte; remark: listed apart in the source
[7] = target: T2, human CD3 on T-cell lines …; assay: flow cytometry, HUT78 cells; remark: listed apart in the source
[8] = target: T3, human CD3 epsilon (Acro Cat #CDE-H5223); assay: SPR (Biacore), antibody captured, human CD3 epsilon analyte; remark: listed apart in the source
Procedure: as §1, §2, §3

Binder | Bmax (MFI) [1] [MFI] | Kd [1] [nM] | binding result [2] | binding result (cynomolgus CD3 epsilon [3]) | HUT78 Bmax [4] | Kd [4] [nM] | Kd [5] [nM] | koff [5] [s⁻¹] | kon [5] [M⁻¹ s⁻¹] | Kd (cynomolgus CD3 epsilon [6]) [nM] | koff (cynomolgus CD3 epsilon [6]) [s⁻¹] | kon (cynomolgus CD3 epsilon [6]) [M⁻¹ s⁻¹] | Bmax (MFI) [7] [MFI] | Kd [7] [nM] | Kd [8] [nM] | koff [8] [s⁻¹] | kon [8] [M⁻¹ s⁻¹] | also measured
B1 | 514 | 222 | no binding | no binding | – | – | – | – | – | – | – | – | – | – | – | – | – | –
B2 | 130 | 30.4 | no binding | no binding | – | – | – | – | – | – | – | – | – | – | – | – | – | –
B3 | – | – | – | – | 737 | 6.61 | 3.63 | 0.000369 | 102000 | 3.99 | 0.00154 | 387000 | – | – | – | – | – | –
B4 | 1040 | 62.6 | – | – | – | – | – | – | – | – | – | – | – | – | – | – | – | Kd [2]: 7.15 nM; koff [2]: 0.000393 s⁻¹; kon [2]: 55000 M⁻¹ s⁻¹; Kd (cynomolgus CD3 epsilon [3]): 13.6 nM; koff (cynomolgus CD3 epsilon [3]): 0.00069 s⁻¹; kon (cynomolgus CD3 epsilon [3]): 50600 M⁻¹ s⁻¹
B5 | 1250 | 0.3 | – | – | – | – | – | – | – | – | – | – | – | – | – | – | – | Kd [2]: 0.493 nM; koff [2]: 0.000267 s⁻¹; kon [2]: 541000 M⁻¹ s⁻¹; Kd (cynomolgus CD3 epsilon [3]): 0.338 nM; koff (cynomolgus CD3 epsilon [3]): 0.000311 s⁻¹; kon (cynomolgus CD3 epsilon [3]): 920000 M⁻¹ s⁻¹
B6 | 63 | 24 | no binding | no binding | – | – | – | – | – | – | – | – | – | – | – | – | – | –
B7 | 737 | 338 | no binding | no binding | – | – | – | – | – | – | – | – | – | – | – | – | – | –
B8 | 1230 | 0.4 | – | – | – | – | – | – | – | – | – | – | – | – | – | – | – | Kd [2]: 0.511 nM; koff [2]: 0.000297 s⁻¹; kon [2]: 580000 M⁻¹ s⁻¹; Kd (cynomolgus CD3 epsilon [3]): 0.329 nM; koff (cynomolgus CD3 epsilon [3]): 0.00034 s⁻¹; kon (cynomolgus CD3 epsilon [3]): 1.03e+06 M⁻¹ s⁻¹
B9 | – | – | – | – | 1200 | 23 | 3.38 | 0.000241 | 71200 | 6.45 | 0.00107 | 166000 | 617 | 1.72 | 7.82 | 0.000631 | 80700 | –
B10 | – | – | – | – | 804 | 18.8 | 3.42 | 0.000379 | 111000 | 1.73 | 0.00123 | 709000 | 689 | 0.32 | 1.84 | 0.000591 | 321000 | –
B11 | – | – | – | – | 1270 | 9.36 | 2.45 | 0.000277 | 113000 | 1 | 0.00058 | 579000 | 544 | 0.27 | 1.31 | 0.000372 | 284000 | –
B12 | – | – | – | – | 1630 | 15.6 | 5.06 | 0.00041 | 81000 | 1.64 | 0.00034 | 207000 | 1060 | 1.72 | 1.47 | 0.000215 | 146000 | –
